# Experiment: soluble on expression in E. coli; label from the status in PepcDB or PDB records
row,Sequence,soluble on expression in E. coli
1,GPGSMLALSQGLPTVDPALVKAFKRAANNASTSGDVDDDSRRQEVARINKEAQKAWRAEEKSFIPAIYLRTRDPSAEDVLQHLRVTSKAFELNLRFRDIEQLDEMQVKLWSLLTADKSKQTVTISEFTEIMNKLKVWQGQRFEPTPKTSPCREISVRSAQQECPVDTTPLDEVMYVGVAKRPRPSLQLFLSCPRSHAGGVEVAHIYQRFAKQVSLVKCEAELLMWDTNNDGRLTEDELESYVRDLVSRVDALRDISNDILPFYCCAVSRRIFWALDPGMRGTIRIDALLQSPLMDEWVSLQLMREDLPRNWFSAAITSHLYDKFLLLDTRNQGTLNAANMKLYKKGLPTVRDDGLPRGVGPLSSLFIDRFFETSVMMACSELDFRKFVDFVIAVEFLPACQRPLFFWNILDIEGCGVLRPVHVNSFFRETHSKLVEAGLEMPSRETVVQEVFDLIPTAEPLRITREEFVKAPQAGLFVALLIDCLSFWAYENREQR,not soluble
2,MGSDKIHHHHHHMATVAFHTLGCKVNHYETEAIWQLFKEAGYERRDFEQTADVYVINTCTVTNTGDKKSRQVIRRAIRQNPDGVICVTGCYAQTSPAEIMAIPGVDIVVGTQDREKMLGYIDQYREERQPINGVSNIMKARVYEELDVPAFTDRTRASLKIQEGCNNFCTFCIIPWARGLLRSRDPEEVIKQAQQLVDAGYKEIVLTGIHTGGYGEDMKDYNFAKLLSELDTRVEGVKRIRISSIEASQITDEVIEVLDRSDKIVNHLHIPIQSGSNTVLKRMRRKYTMEFFADRLNKLKKALPGLAVTSDVIVGFPGETEEEFMETYNFIKEHKFSELHVFPYSKRTGTPAARMEDQVDENVKNERVHRLIALSDQLAKEYASQYENEVLEIIPEEAFKETEEENMFVGYTDNYMKVVFKGTEDMIGKIVKVKILKAGYPYNEGQFVRVVEDEITEHMRLSS,not soluble
3,MALQGISVMELSGLAPGPFCAMVLADFGARVVRVDRPGSRYDVSRLGRGKRSLVLDLKQPRGAAVLRRLCKRSDVLLEPFRRGVMEKLQLGPEILQRENPRLIYARLSGFGQSGSFCRLAGHDINYLALSGGRNSIFKFFSVENSEIESVGSTSRTEHVGWWSTFLYDLQDSRWGIHGCWSNRTPVLRAADQRTWTKV,not soluble
4,MGSDKIHHHHHHMFEKRVLKIKGGSNFRDLGGYQTHDGKKILWGRLFRGSALNNFTNHDLRVLKRRHINTIIDFRSLDESLNDPDIYPETSNDIRLTVLDQDTTYSTITPEEFHRLSHSNGFAYKQMMNTYRRLITDEFSQQAYRQFFDYLLNQDDGAILFHCTKGKDRTGIATALFFLAVGIDKKTIFQDYLLTDTYNHEQTEVELERMVERGEDDDDIDNVKHFLLTDRNYLENAFAAMDEIAGSPQAYLKKYLGLSDEKIQILRNKYLS,not soluble
5,MPNCPNCQKPVYFAERVSSLGKDWHRPCLKCANKACGKTLSAGSHSEHEGKPYCNRCYGALFGPKGYGHGGTESHTFLQGTTGN,soluble
6,MMEADKKFLELVKKWGVLSVVSSWQDRLLRDICALIVECVLFDKTCAVAPAYFTLIAMNSSKFSTQQWNIFSNFLATASTQSLRHVRLLNSFFVRSSTDENGDIGDVTSYNPGKLTFRQLIAAVQVLSSQKEKSLGQKEEEDLSSGVALIMLSHGADTHRLEVHSIISSLFTHCLLLQLIASLLLSEDSNPKLKATLIGSTSPIDPKLDDSIYPILYNILNESSETSLDFDSRPAVGSLLSRMLGIKHANLLKALVSSNLTKTMSLLRRFEKTKNTELLPEIAKAVKSRSVDLKSVEFEVSTRRSAFVTREHAITQYHLVPVDNGEENAYKLVSQEFVDGALSEYDKHRDRLKPFIPDRRNPFQHAIDDSDTVSIDSKTEDFDEIRLAAYRDICLIPLRYVSDNLLREHLPDFLPPVTQIVLSSPDLAVRQLAVDFMSRLA,not soluble
7,MTSLTNAVFKRYLAVTPSAHQALKTRIKKKSSSFDKFFPQQSNSRKKQWETLNEDKASWFKRKYAHVHAREQDRAADPYGKKKAHVEKLKEIKNQAKLNQKSHKSKFQNKDIALKLMNDNPIFEYVYGTNSVYAALLNPSRNCHSRLLYHGTIPSKFLQIVDELKVTTELVDKHRLNLLTNYGVHNNIALETKPLQPVEIAYLGDMDTSSAALSIHELGFNNENIPHELPYGTKTDAKKFPLGLYLDEITDPHNIGAIIRSAYFLGVDFIVMSRRNCSPLTPVVSKTSSGALELLPIFYVDKPLEFFTKSQEMGGWTFITSHLANATSEKYTVGKTISMHDLNGLCNELPVVLVVGNESQGVRTNLKMRSDFFVEIPFGGIEKGNRAPEPIVDSLNVSVATALLIDNILTCK,soluble
8,MSLSGDDFSVPSKNSESTLFDSVEGDGAMMEEGVKSRPRQKKTQACLASKHVQEAPRLEPANEEHNVETAEDSEIRYLSADSGDADDSDADLGSAVKQLQEFIPNIKDRATSTIKRMYRDDLERFKEFKAQGVAIKFGKFSVKENKQLEKNVEDFLALTGIESADKLLYTDRYPEEKSVITNLKRRYSFRLHIGRNIARPWKLIYYRAKKMFDVNNYKGRYSEGDTEKLKMYHSLLGNDWKTIGEMVARSSLSVALKFSQISSQRNRGAWSKSETRKLIKAVEEVILKKMSPQELKEVDSKLQENPESCLSIVREKLYKGISWVEVEAKVQTRNWMQCKSKWTEILTKRMTNGRRIYYGMNALRAKVSLIERLYEINVEDTNEIDWEDLASAIGDVPPSYVQTKFSRLKAVYVPFWQKKTFPEIIDYLYETTLPLLKEKLEKMMEKKGTKIQTPAAPKQVFPFRDIFYYEDDSEGHHHHHH,not soluble
9,MSLAESQLSKLDVNLQSLNPYTFSKTRCIVNLHISDDTKNRDPSTTNGSYSNSQLLSNGEHVCYHFSQDYCVLSIYPVTDAITGKTVVVHLPHETFNDHHTFTMAEEDGCIVMDLILKTGLFLTLRFSLEYLFNRNADINSSWYSLLKPYDFTVRLPDYLYKVNSALSIVYLNDGGLLGLQKTQTSGSDEYDLHPVLFNDNSYFQSFTRFFSHNDSGRENVVSSVSYGDYHLLTLTENCKLRIWDLRTNSVTAQLNLITDPQDKHRKYESIGPYLALLDSVLVVFLPFGNGAFRTFQLSVNNSGGLVLTPRGELIRTNLSTASIWSLVDTKLTKPFELNIETSYLQMVVLWKSNTSIKLQILNFETEALDKHSWVEASNKSLPDILDNDILGDNFEQSLLDLKAHYTPAIYEEAQRILSANGIIFVPSQQNNDEYLSNLESILKDLKKHHDEPSSLTLYNGEVVMVNTLYLYNHFVYKINSKLESFYYNLTSEGHHHHHH,soluble
10,MGSDKIHHHHHHMRIVNDVKKILFLAANPQNTVRLRLDKEVEEIRTTLQLSVNRDRFVIESRGAVRPDDLQQYMYNLKPQIVHFSGHGGGEYGLAFEDENGAEQPVSTDALAKFFQLFAGEVNCVVLNACYASVQAEAIAQYIPYVVGMNQAIGDEAARQFAQGFYRAIWDNRSIEDAFASGVNAIALDGIPEDLTPVLLRQADRVTTQTIPSNSVSLESPDGQVRIDSRFYVHSSYEERCYAEVKKPGSLIRIKSPHNMGKSSLMVRVLGYAAQLGYRTVTLNLEQVNQKFFNDLDKYMQWFCASVGKPLGVRIKIEEYWDDIFGANDNSTDYFEKYLLDDTEPPLVVAIDNFDRVFKYPDIETDFCGLLRGWHERSRSNQLWGKLRFVIVYSQEPYLQKDINQSPFNVGLPIELGEFTTAQVQELIRLHGLDWSGQFVKQFMDLIGGHPYLVRSALYHIAAGDLTLEEFLRTAPTEAGIYSDYLLGHLKSLEDYPTLGAAMKTVVTSEFPVRLRSEEAFRVWLCGLRITSSPDANCIVNIFAIA,not soluble
11,MTTYLIIGANRVGQLVARQLATESATVRLLHDGKETLPSDLATQVTELTGDLTQEATYTAALQDQPIIFSALTGMDVDLAFEALFDAQYHQRLTFQRFVMLSTAGVDQEVTGDLAYPGITDVAEYLKQQRYAAKLVDEAEFPYTILRPVTLADSPRRDPQIIKEGAAVPAGTVSRETVAQVAVSLLQAGGADYQSLAICLEHHHHHH,not soluble
12,MGSDKIHHHHHHMTDARDLTLPTGYIDLLGELKNRVRAARTRALRTVNTQLIELYWSIGQDVSAQQEHQGWGSGVIKRLADDLRAEFPEMKGFSARNVQYMTTFARAWNGGAIAQQPVAQLPWGHVTVLLDKLADQEKRDWYASEAVEYGWSRNVLMNMIMNKSLERTGSAPSNFAQHLVAQDSELAQQAAKDPYSFEFLGLSGEVAERDLEQALMDRITETLREMGPGFAFVGRQVHFDVGGDDFYIDLLFFHVEQLRYYVVELKTGKFQPEYAGKLNSYIALVDDRLRRETHADTVGILICGSKNDHTVRYSLGRATSPMAVASYTYDALPADVRDELPDADRLTAALDWTED,not soluble
13,MLLWVFEYNSVSRASWGDRVPVDKNSCACLEGGYAACLCGVAKSVKGRPVLRGVSLSVKFGEIHVLAGLNGAGKTTSLRVLVGLLSRDSGEARVLGVDPWGGGFERVKGEVGYLPEDASVYERLTGMENILFYARLYSGWRDVEELVENAVFYSGLSREDLARRAGGYSKGMKRRLLLGITLMSKPRLVVLDEPTSGVDPIASNRIKKILRGLSREGRAILVTTHDLALAEEIADRVTIIHGGSTVASGPPYRLVEEYCGETLEDAFVNIVTGGGC,soluble
14,MSLNKPVLPKPAPSISSLSLKLPKADRSIETYRLAASRTFPARLEGPLNRIAFSAVHTVADPFADNDPWLSVAVDWDKTIAFREHVWDLGLGVAEAMDTAQRGMGLDWPTSLELITRSVAAAKRRNALVFSGAGTDHLAVEDARTVDDVIRAYEEQISAVEKVGGRIILMASRALAKLGRNADDYAKVYDRVLSQVREPVIIHWLGDMFDPALTGYWGTKDLDKAMDVAVAVINANAAKVDGVKVSLLDKQREIDMRRRLDKRIRMYTGDDFNYAELIAGDSQGFSHALLGIFDAIAPAASYALSRLAAGDEAGFHDVLGPTVPLSRHIFKAPTRFYKTGVVFMAYLNGHQDHFTMVGGQESARSMLHLAELFRLADQAGLLANPELATRRMTTVLASHGIESEGHHHHHH,not soluble
15,MHSITTALENLTRQLSQEIPATPGLCVFDAPFPLNDAFDALSWLASQSSFPQFYWQQRNGDEEAAVLGAITVFSSLDLAQRFLRQHAQPDLRIWGLNAFEPKEGYLLLPRLEWRRSGGTATLRLHLHSDVSLRDDARQAKAFLASLVGIKPVPALRLSLTSEQHWPDKDGWVKLIQQATHTIAQEAFDKVVLARATDLQFSRPVNAAAMMASSRRLNLNCYHFFMAFSADTAFLGSSPERLWRRRETALRTEALAGTVANHPDNHKAWQLGEWLMKDDKNQRENMLVVEDICQRLQNCTHSLDVLPPQVLRLRKVQHLRRCIWTALNQADDTLCLHQLQPTAAVAGIPREPARCFIEQHEPFEREWYAGSAGYLSTRQSEFCVTLRSAKVTANVVRLYAGAGIVRGSDPEQEWQEIDNKAAGLRTLLQMDA,not soluble
16,PALVLEGDMTAPTLVIGWGSTFGSLKSAVQQCLEQGLPVAYLHLRHLNPLPDDLGSLLKKYDKVLVAELNSGQLCQLIRAVYLVDAQSISQCNGQPFSVNPLVSAIKAEANYEQQL,not soluble
17,MGSDKIHHHHHHHVETIKNTFLNPKSNKVLVVAHRGNWRSAPENSTAAIDSAIAMKVDIVEIDIQKTKDGQLILMHDNTLDRTTTGKGEIKNWTLADIKKLKLKDKDGKVTNYVVPTLEEALLTAKGKIMVNLDKAYDIFDDVYAILEKTETQNQVIMKGGQPIETVKREFGSYLDKVLYMPVIDLGNKEAEKIITDYLKELRPAAFEIIYSDPKNPLPPKIKQLLFKKSLIWYNTLWGSLAGNHDDNLALTDPEKSYGYLIEQLGARILQTDQPAYLLDYLRKKGWHN,not soluble
